# In patent US20240059790A1 (JANUX THERAPEUTICS, published 2024):
# B1: cynomolgus monkey albumin (other)
# chain: DTHKSEVAHRFKDLGEEHFKGLVLVAFSQYLQQCPFEEHVKLVNEVTEFAKTCVADESAENCDKSLHTLFGDKLCTVATLRETYGEMADCCAKQEPERNECFLQHKDDNPNLPPLVRPEVDVMCTAFHDNEATFLKKYLYEVARRHPYFYAPELLFFAARYKAAFAECCQAADKAACLLPKLDELRDEGKASSAKQRLKCASLQKFGDRAFKAWAVARLSQKFPKAEFAEVSKLVTDLTKVHTECCHGDLLECADDRADLAKYMCENQDSISSKLKECCDKPLLEKSHCLAEVENDEMPADLPSLAADYVESKDVCKNYAEAKDVFLGMFLYEYARRHPDYSVMLLLRLAKAYEATLEKCCAAADPHECYAKVFDEFQPLVEEPQNLVKQNCELFEQLGEYKFQNALLVRYTKKVPQVSTPTLVEVSRNLGKVGAKCCKLPEAKRMPCAEDYLSVVLNRLCVLHEKTPVSEKVTKCCTESLVNRRPCFSALELDEAYVPKAFNAETFTFHADMCTLSEKEKQVKKQTALVELVKHKPKATKEQLKGVMDNFAAFVEKCCKADDKEACFAEEGPKFVAASQAALA
# notes: Antigen immobilized on the ELISA plate
# Molecular target: T1, polypeptide complex 1 (PC-1)
# T1 construct: also called Intact PC-1; uncleaved PC-1
# Assay: ELISA ('Cyno Albumin ELISA')
binder,measurement,value
B1,binding result,binds
